Test results taken from patent EP4635986A1 (National and Kapodistrian University of Athens, dated 2025).

How the values were obtained:
PEc fragment aa 1-12 = biological target: T1, PEc fragment aa 1-12 (human); experiment: dot blot on nitrocellulose
T1 peptide: YQPPSTNKNTKS

[1] = biological target: T2, human Ec peptide (PEc), whole, 24 amino acids (human); experiment: dot blot, peptide on nitrocellulose, 2.5 µg/mL MAb
T2 construct: also called human PEc; whole PEc
T2 peptide: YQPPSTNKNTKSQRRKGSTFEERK

PEc fragment aa 13-24 = biological target: T3, PEc fragment aa 13-24 (human); experiment: dot blot, peptide on nitrocellulose, 2.5 µg/mL MAb
T3 construct: also called the last 12 amino acids
T3 peptide: QRRKGSTFEERK

B1: anti-PEc monoclonal antibody (MAb) of Example 1 (antibody, mouse IgG1, kappa, V domains shown)
VH: EVQLQQSGAELVRSGASVKLSCAASGFNLKDYYIHWVKQRPEQGLEWIGWIDPENGDTEYAPKFQGRATMTADTSSNTAYLHLSSLTSEDTAVYYCFANDVDCWGQGTTLTVSS
VL: DVVMTQPPLSLPVSLGDQASISCRSSQSLVHSNGKTYLHWYLQKPGQSPKLLIYKLSNRFSGVPDRFSGSGSGTDFTLKISRVEAEDLGVYFCFQSTHIPYTFGGGSKLEIRR
notes: Obtained from a mouse hybridoma, then expressed recombinantly in CHO cells; Called an IgG MAb; captured with anti-mouse Fc and detected with anti-mouse HRP; also called anti-PEc MAb; anti PEc MAb
B1: no binding (PEc fragment aa 1-12); binds [1]; binds (PEc fragment aa 13-24).
